In the supplement of paper PMC9732359 one finds protein stability index data, which are given here for 25 sequences.

This data set is described as follows: protein stability index of a GFP-peptide fusion (yeast GPS) (PSI 1-4); higher = more stable; sorted into four equal gates, so the index is relative within each strain. In short, it runs like this:
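Tiled 17-residue yeast protein peptides were fused downstream of GFP in a plasmid that also expresses Cherry, and the pooled library was carried in yeast. Mid-log cultures in leucine-free medium were sorted into four equal gates by GFP/Cherry fluorescence ratio, and plasmids from each gate were PCR-amplified and Illumina-sequenced, with reads assigned to strains by barcodes. The protein stability index for each peptide was each gate's read frequency times its gate number, summed.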

± gives the uncertainty stated by the source.

NLLVLRGKNEIIQNAQR [RPO21] gave a protein stability index (doa10∆) of 1.56 ± 0.11, a protein stability index (pdr5∆) of 1.41 ± 0.092, a protein stability index (san1∆) of 1.69 ± 0.16 and a protein stability index (ubr1∆) of 1.26 ± 0.085.

NLNTDKLKNNASRSQLE [YJL039C/NUP192]: the protein stability index reads like this: (doa10∆) 2.22 ± 0.13; (pdr5∆) 2.69 ± 0.065; (san1∆) 2.81 ± 0.11; (ubr1∆) 2.69 ± 0.064.

On to NLNVYIQVFEKPFLKKT [CDC53], for which the protein stability index runs as follows: (doa10∆) 2.2 ± 0.071; (pdr5∆) 2.23 ± 0.056; (san1∆) 2.57 ± 0.074; (ubr1∆) 2.63 ± 0.057.

Turning to NLPPHYALFLKALRRKI [SSN2], the protein stability index runs as follows: (doa10∆) 2.15 ± 0.11; (pdr5∆) 1.79 ± 0.095; (san1∆) 2.8 ± 0.22; (ubr1∆) 1.7 ± 0.087.

NLQQDKTNFQDVILDYQ [REC8]: the protein stability index turned out to be 3.07 ± 0.069 (doa10∆), 3.19 ± 0.05 (pdr5∆), 3.4 ± 0.071 (san1∆) and 3.12 ± 0.041 (ubr1∆).

As to NLSSTPMETLLSGLSAD [YML031W/NDC1], the protein stability index reads like this: (doa10∆) 2.42 ± 0.075; (pdr5∆) 2.59 ± 0.071; (san1∆) 2.53 ± 0.055; (ubr1∆) 2.42 ± 0.038.

Turning to NLTPANILNMSMNNDFQ [PGD1], the protein stability index runs as follows: (doa10∆) 2.86 ± 0.11; (pdr5∆) 3.22 ± 0.091; (san1∆) 3.01 ± 0.068; (ubr1∆) 2.89 ± 0.052.

As to NMEIRNLRLKILTIIEE [GRR1], the protein stability index (doa10∆) was determined as 1.62 ± 0.065, the protein stability index (pdr5∆) was 1.53 ± 0.049, the protein stability index (san1∆) came to 1.83 ± 0.078 and the protein stability index (ubr1∆) was 1.33 ± 0.046.

On to NMNNGGKELDSLDLNNL [PGD1], for which the protein stability index reads like this: (doa10∆) 3.06 ± 0.11; (pdr5∆) 3.24 ± 0.11; (san1∆) 3.06 ± 0.079; (ubr1∆) 3.26 ± 0.065.

Consider NMTTIADRNDDDEGSFA [SRB6], for which the protein stability index reads like this: (doa10∆) 3.72 ± 0.17; (pdr5∆) 3.4 ± 0.3; (san1∆) 3.33 ± 0.094; (ubr1∆) 3.44 ± 0.079.

Consider NMVRNNNNNTIDESMPD [GRR1], for which the protein stability index was found to be 2.83 ± 0.057 (doa10∆), 3.12 ± 0.061 (pdr5∆), 3.02 ± 0.074 (san1∆) and 3.12 ± 0.052 (ubr1∆).

NNETEQLKAEEKKILNQ [SMC1]: the protein stability index (doa10∆) stood at 3.11 ± 0.12, the protein stability index (pdr5∆) worked out at 3.15 ± 0.17, the protein stability index (san1∆) is 3.13 ± 0.17 and the protein stability index (ubr1∆) was determined as 3.01 ± 0.11.

For NNGDKDHLKLVSLFSNL [YIL149C/MLP2], the protein stability index (doa10∆) amounted to 2.42 ± 0.09, the protein stability index (pdr5∆) was 2.67 ± 0.19, the protein stability index (san1∆) came out at 2.5 ± 0.26 and the protein stability index (ubr1∆) was 2.44 ± 0.096.

For the sequence NNIEENLRLLNSIDSTS [ECM29], the protein stability index runs as follows: (doa10∆) 3.21 ± 0.06; (pdr5∆) 3.33 ± 0.057; (san1∆) 3.18 ± 0.044; (ubr1∆) 3.21 ± 0.046.

For the sequence NNNGLPQNGNINNNINI [GAL11], the protein stability index runs as follows: (doa10∆) 3.13 ± 0.05; (pdr5∆) 3.29 ± 0.071; (san1∆) 3.39 ± 0.044; (ubr1∆) 3.11 ± 0.048.

NNNGNSAASKKKKNKNK [SRP21]: the protein stability index runs as follows: (doa10∆) 3.09 ± 0.092; (pdr5∆) 3 ± 0.12; (san1∆) 3.15 ± 0.057; (ubr1∆) 3.14 ± 0.057.

Regarding NNNSSNEKEQLSFINPK [SEC65], the protein stability index by setting is: (doa10∆) 2.83 ± 0.045; (pdr5∆) 3.11 ± 0.052; (san1∆) 2.8 ± 0.034; (ubr1∆) 2.92 ± 0.036.

Take NNPKIQTKDSVKEIVLP [IRR1]: the protein stability index reads like this: (doa10∆) 3.17 ± 0.07; (pdr5∆) 2.94 ± 0.077; (san1∆) 3 ± 0.059; (ubr1∆) 3.11 ± 0.051.

Take NNPKVKTSKRTKRWYKN [RPS11A]: the protein stability index is, setting by setting: (doa10∆) 3.36 ± 0.091; (pdr5∆) 3.28 ± 0.094; (san1∆) 3.21 ± 0.12; (ubr1∆) 3.19 ± 0.087.

Take NNPQVVNAITVAQQQVQ [SNF5]: the protein stability index (doa10∆) stood at 1.69 ± 0.049, the protein stability index (pdr5∆) came out at 1.78 ± 0.047, the protein stability index (san1∆) came out at 1.42 ± 0.075 and the protein stability index (ubr1∆) is 1.99 ± 0.035.

For the sequence NNQSKEKADYEDEMMHE [RPN12], the protein stability index was 2.63 ± 0.074 (doa10∆), 2.7 ± 0.06 (pdr5∆), 2.67 ± 0.095 (san1∆) and 2.53 ± 0.052 (ubr1∆).

For the sequence NNTHVGRQFCNRLSRIH [YLR018C/POM34], the protein stability index runs as follows: (doa10∆) 2.34 ± 0.12; (pdr5∆) 2.69 ± 0.17; (san1∆) 2.3 ± 0.23; (ubr1∆) 1.95 ± 0.089.

As to NNTNTDNVSGLTRNAPL [SNF2], the protein stability index reads like this: (doa10∆) 3.06 ± 0.069; (pdr5∆) 3.35 ± 0.049; (san1∆) 3.05 ± 0.039; (ubr1∆) 3.16 ± 0.037.

On to NPFTSATSSTNANAGLF [YOR098C/NUP1], for which the protein stability index was found to be 2.72 ± 0.077 (doa10∆), 2.84 ± 0.1 (pdr5∆), 2.82 ± 0.093 (san1∆) and 3.31 ± 0.074 (ubr1∆).

In the case of NPYNIVPQGKIVALTNA [SMC3], the protein stability index by setting is: (doa10∆) 2.77 ± 0.14; (pdr5∆) 2.78 ± 0.086; (san1∆) 2.82 ± 0.12; (ubr1∆) 3.11 ± 0.078.
